Patent US20020137891A1, “Protein scaffold and its use to multimerise monomeric polypeptides” (priority 1999, published 2002)
Read-outs that look alike come from different tables or passages of the source.

B1: sht-GroEL (191-376): histidine-tagged (short histidine tail; sht) minichaperone GroEL(191-376) (protein, UniProt P0A6F5 191-376, looked up, fragment)
chain: EGMQFDRGYLSPYFINKPETGAVELESPFILLADKKISNIREMLPVLEAVAKAGKPLLIIAEDVEGEALATLVVNTMRGIVKVAAVKAPGFGDRRKAMLQDIATLTGGTVISEEIGMELEKATLEDLGQAKRVVINKDTTTIIDGVGEEAAIQGRVAQIRQQIEEATSDYDREKLQERVAKLAGGV
modifications: short histidine tail
B2: Gp31 (1-111): wild-type bacteriophage T4 Gp31 (gene product), cpn10 family co-chaperonin (protein, UniProt P17313 1-111, looked up)
Capsid assembly protein Gp31: MSEVQQLPIRAVGEYVILVSEPAQAGDEEVTESGLIIGKRVQGEVPELCVVHSVGPDVPEGFCEVGDLTSLPVGQIRNVPHPFVALGLKQPKEIKQKFVTCHYKAIPCLYK
B3: sht-GroEL (191-345): short histidine tail minichaperone, GroEL residues 191-345 (protein, UniProt P0A6F5 191-345, looked up, fragment)
chain: EGMQFDRGYLSPYFINKPETGAVELESPFILLADKKISNIREMLPVLEAVAKAGKPLLIIAEDVEGEALATLVVNTMRGIVKVAAVKAPGFGDRRKAMLQDIATLTGGTVISEEIGMELEKATLEDLGQAKRVVINKDTTTIIDGVGEEAAIQGR
modifications: short histidine tail
B4: GroES (1-97): E. coli co-chaperone, seven membered ring of 10 kD subunits (protein, UniProt P0A6F9 1-97, looked up)
Co-chaperonin GroES: MNIRPLHDRVIVKRKEVETKSAGGIVLTGSAAAKSTRGEVLAVGNGRILENGEVKPLDVKVGDIVIFNDGYGVKSEKIDNEEVLIMSESDILAIVEA
B5: sht-GroEL (193-335): shortest minichaperone, short histidine tail GroEL residues 193-335 (protein, UniProt P0A6F5 193-335, looked up, fragment)
chain: MQFDRGYLSPYFINKPETGAVELESPFILLADKKISNIREMLPVLEAVAKAGKPLLIIAEDVEGEALATLVVNTMRGIVKVAAVKAPGFGDRRKAMLQDIATLTGGTVISEEIGMELEKATLEDLGQAKRVVINKDTTTIIDG
modifications: short histidine tail

Legend:
[1] = tested on: COS-7, PC12, and SH-SY5Y cells; conditions: cited from earlier work
[2] = tested on: E. coli SV2 groEL44; test: In vivo complementation of thermosensitive groEL mutant at 43° C., strain SV2; format: cell-based; conditions: for Relative colony forming ability, SV2 groEL44: pJC plasmid, relative to growth at 30° C.
Experimental: (§1) In vivo complementation experiments. Complementation experiments were performed by transforming electro-competent SV2 or SV6 cells with the pJC series of expression vectors and plating an aliquot of the transformation reactions directly at 43° C. The percentage of viable cells relative to the growth at 30° C. was determined. A representative number of clones which grew at 43° C. were incubated in absence of any selective markers at permissive temperature. After prolonged growth the loss of the pJC plasmids and the ts phenotype were verified. Each experiment was performed in duplicate. Plasmids carrying no groE genes or encoding the GroE proteins were used as negative or positive controls, respectively.

[3] = tested on: E. coli SV6 groEL673; test: In vivo complementation of thermosensitive groEL mutant at 43° C., strain SV6; format: cell-based; conditions: for Relative colony forming ability, SV6 groEL673: pJC plasmid, relative to growth at 30° C.
Experimental: as §1

[4] = tested on: AI90 (ΔgroEL::kan^R) [pBADEL] E. coli strain; test: Plating ability of transformed AI90 (ΔgroEL::kan^R) [pBAD-EL] at 37° C. on depletion of GroEL; format: cell-based; design: key: +++: growth identical to that in presence of 0.2% L(+)arabinose (100%), in terms of both number and size; ++: about 50% of the colonies relative to that in presence of 0.2% L(+)arabinose; +: about 30% of the colonies; +/−: ≦5% of the colonies and size reduced relative to that in presence of 0.2% L(+)arabinose; −: no visible colonies
Experimental: AI90 (ΔgroEL::kan^R) [pBAD-EL] cells were transformed with the pJC vector series. Transformants were selected at 37° C. on LB supplemented with 50 μg.ml^−1 of kanamycin, 120 μg.mL^−1 of ampicillin, 25 μg.mL^1 of chloramphenicol and 0.2% L(+)arabinose. Depletion of GroEL protein was analysed at 37° C. by plating the same quantity of AI90 [pBAD-EL+pJC vectors] cells on LB plates containing 1% D(+)glucose or various amount of arabinose.
Each experiment was performed in triplicate. Plasmids carrying no groE genes or encoding the GroE proteins were used as negative or positive controls, respectively.

[5] = tested on: bacteriophage λ (b2cI); test: Growth (plaque formation) of bacteriophage λ at 30° C. in transformed wild-type and groEL mutant strains; format: cell-based, E. coli; design: key to Growth of bacteriophage λ, SV1 (groEL^+) / Growth of bacteriophage λ, SV2 groEL44: +++: normal plaque-forming ability relative to wild-type groEL^+ strain, in terms of both number and size; ++: 5-fold fewer plaques relative to wild-type groEL^+ strain, or both; 10-fold fewer plaques, or plaque size reduced relative to wild-type groEL^+ strain, or both; +/−: 10^2-fold fewer plaques and plaque size reduced relative to wild-type groEL^+ strain; no visible plaques (<10^−4); conditions: for Growth of bacteriophage λ, SV1 (groEL^+) / Growth of bacteriophage λ, SV2 groEL44 / Growth of bacteriophage λ, SV3 GroEL59 / Growth of bacteriophage λ, SV6 groEL673: pJC plasmid
Source text: (§2) Bacterial and bacteriophage strains. The E. coli strains used in this study were: C41(DE3), a mutant of BL21(DE3) capable of expressing toxic genes (Miroux, B. & Walker, J. E. (1996) J. Mol. Biol. 260, 289-298); SV2 (B178groEL44), SV3 (B178groEL59) and SV6 (B178groEL673): isogenic strains carrying temperature-sensitive alleles of groEL; SV1(=B178) (Georgopoulos, C., Hendrix, R. W., Casjens, S. R. & Kaiser, A. D. (1973) J. Mol. Biol. 76, 45-60), AI90 (ΔgroEL::kan^R) [pBAD-EL] (Ivic, A., Olden, D., Wallington, E. J. & Lund, P. A. (1997) Gene 194, 1-8), and TG1 (Gibson, T. J. (1984) Ph.D. thesis, University of Cambridge, U.K). Bacteriophage λb2cI (Zeilstra-Ryalls, J., Fayet, O., Baird, L. & Georgopoulos, C. (1993) J. Bacteriol. 175, 1134-1143) was used according to standard methods (Arber, W., Enquist, L., Hohn, B., Murray, N. E. & Murray, K. (1983) in Lambda II., ed. R. W. Hendrix, J. W. r., F. W. Stahl and R. A. Weisberg (Cold Spring Harbor Laboratory, Cold Spring Harbor, N.Y.), pp. 433-466); plaque formation was assayed at 30° C. T4D0, a derivative of bacteriophage T4 (Zeilstra-Ryalls, J., Fayet, O., Baird, L. & Georgopoulos, C. (1993) J. Bacteriol. 175, 1134-1143), was used according to standard methods (Karam, J. D. (1994) Molecular biology of bacteriophage T4. (American Society for Microbiology, Washington, D.C.)); plaque formation was assayed at 37° C.
(§3) Bacteriophage λ requires the chaperonins GroES and GroEL for protein folding during morphogenesis; bacteriophage T4 requires GroEL and Gp31, the latter being encoded by the bacteriophage genome (Zeilstra-Ryalls, J., Fayet, O. & Georgopoulos, C. (1991) Annu. Rev. Microbiol. 45, 301-325). Nine groE alleles which fail to support λ growth have been sequenced (Zeilstra-Ryalls, J., Fayet, O., Baird, L. & Georgopoulos, C. (1993) J. Bacteriol. 175, 1134-1143). We examined the ability of MC7, over-expressed from the constitutive tet promoter on a high-copy number vector (see FIG. 2), to complement three mutant groEL alleles for plaque formation by λ (b2cI) at 30° C. (Table 3) and T4 at 37° C. (Table 4).

[6] = tested on: bacteriophage T4 (T4D0); test: Growth (plaque formation) of bacteriophage T4 at 37° C. in transformed wild-type and groEL mutant strains; format: cell-based, E. coli; design: key: +++: normal plaque-forming ability relative to wild-type groEL^+ strain, in terms of both number and size; ++: 5-fold fewer plaques relative to wild-type groEL^+ strain, or both; 10-fold fewer plaques, or plaque size reduced relative to wild-type groEL^+ strain, or both; +/−: 10^2-fold fewer plaques and plaque size reduced relative to wild-type groEL^+ strain; no visible plaques (<10^−4); conditions: pJC plasmid
Source text: as §2, §3

[7] = tested on: bacteriophage T4 (T4D0); test: as above; format: cell-based, E. coli; conditions: text prints 30° C. (Table 3)

Row | Molecule | Relative colony forming ability, SV2 groEL44 [2] | Relative colony forming ability, SV6 groEL673 [3] | Growth of bacteriophage λ, SV1 (groEL^+) [5] | Growth of bacteriophage λ, SV2 groEL44 [5] | Growth of bacteriophage λ, SV3 GroEL59 [5] | Growth of bacteriophage λ, SV6 groEL673 [5] | Growth of bacteriophage T4, SV1 (groEL^+) [6] | Growth of bacteriophage T4, SV2 groEL44 [6] | Growth of bacteriophage T4, SV3 groEL59 [6] | Growth of bacteriophage T4, SV6 groEL673 [6] | further results
1 | CC(=O)N[C@@H](CSC(=O)[C@]1([C@@H](O)C(C)C)NC(=O)[C@H](C)[C@@H]1O)C(=O)O [lactacystin] |  |  |  |  |  |  |  |  |  |  | proportion of cells with inclusions of mutant Huntington exon 1 ([1]; treatment of transfected cells): increased
2 | HDJ-2/HSDJ: a human HSP40 homologue |  |  |  |  |  |  |  |  |  |  | inclusion formation ([1]; overexpression in COS-7 cells): increased inclusion formation; inclusion formation ([1]; overexpression in PC12 and SH-SY5Y cells): did not modify inclusion formation
3 | B1 | <10^−4 | <10^−4 | +++ | − (no visible plaques (<10^−4)) | − (no visible plaques (<10^−4)) | − (no visible plaques (<10^−4)) | +++ | − (no visible plaques (<10^−4)) | +++ | − (no visible plaques (<10^−4)) | Plating ability ([4]; 0.00 % L(+)arabinose): −; Plating ability ([4]; 0.01 % L(+)arabinose): +/− (≦5% of the colonies and size reduced relative to that in presence of 0.2% L(+)arabinose); Plating ability ([4]; 0.10 % L(+)arabinose): + (about 30% of the colonies); Plating ability ([4]; 0.15 % L(+)arabinose): ++ (about 50% of the colonies relative to that in presence of 0.2% L(+)arabinose)
4 | B2 | 0.5 × 10^−3 | <10^−4 | +++ | − (no visible plaques (<10^−4)) | − (no visible plaques (<10^−4)) | − (no visible plaques (<10^−4)) | +++ | +++ | +++ | +++ | Effect of over-expression on bacteriophage T4 growth in groEL strains (in words) [7]: allows T4 growth in all strains
5 | B3 | 0.01-0.02 | 0.07-0.09 |  |  |  |  |  |  |  |  | Complementation of the groEL673 defect in SV6 (in words) [3]: complemented
6 | B4 | 5 × 10^−3 | <10^−4 | +++ | +++ | − (no visible plaques (<10^−4)) | − (no visible plaques (<10^−4)) | +++ | +++ | +++ | − (no visible plaques (<10^−4)) | Complementation of groEL mutant strains for bacteriophage λ growth (in words) [5]: allele-specific complementation; Effect of over-expression on plaque formation by bacteriophage λ in SV1 (groE^+) (in words) [5]: had no effect; Effect of over-expression on bacteriophage T4 growth in groEL strains (in words) [7]: allele-specific complementation
7 | B5 | 0.05-0.09 | 0.03-0.05 |  |  |  |  |  |  |  |  | Complementation of the groEL44 defect in SV2 (in words) [2]: complements; Complementation of the groEL673 defect in SV6 (in words) [3]: less well
